According to publication PMC7689490, “Designed CXCR4 mimic acts as a soluble chemokine receptor that blocks atherogenic inflammation by agonist-specific targeting” (Nature Communications, 2020):
“And” between values parts separate entries of the source, which are not always exact repeats. Equal values may be shown once.

Columns and labels:
Fluos-msR4M-L1 (human) [1] = biological target: Fluos-msR4M-L1 (human) (UniProt P61073); assay: other fluorescence titration; 5 nM Fluos-labeled ectodomain peptide titrated with unlabeled MIF, MIF peptide or CXCL12; 10 mM sodium phosphate, pH 7.4, 1% HFIP; emission at 522 nm; apparent KD, 1/1 binding model; one constant for each of three curves
[2] = biological target: 5(6)-carboxytetramethylrhodamine (TAMRA)-msR4M-L1 (human) (UniProt P61073); assay: MST; 100 nM TAMRA-msR4M-L1 titrated with MIF or CXCL12; 20 mM sodium phosphate, pH 7.2, Tween-20; 37 °C; apparent KD
Fluos-msR4M-L1 (human) [3] = biological target: Fluos-msR4M-L1 (human) (UniProt P61073); assay: fluorescence polarisation; 5 nM Fluos-msR4M-L1 titrated with unlabeled MIF (0.5 to 277.5 nM); 10 mM sodium phosphate, pH 7.2, 0.5% HFIP; RT; apparent KD
[4] = biological target: Fluos-ECL2 (fluorescein-labelled ECL2[182–196] peptide of CXCR4) (human) (UniProt P61073); assay: other fluorescence titration; Fluos-labelled CXCR4 ectodomain peptide at 5 nM titrated with unlabelled MIF, MIF(10xAla), CXCL12 or MIF peptide fragments; 10 mM sodium phosphate, pH 7.4, 1% HFIP; emission at 522 nm; apparent KD, 1/1 binding model

Row | Substance | Kd (Fluos-msR4M-L1 (human) [1]) | Kd [2] | Kd (Fluos-msR4M-L1 (human) [3]) | Kd [4]
1 | MIF peptide 38–80 (from UniProt P14174 38-80) | 0.0646 µM and 0.049 µM and 0.0577 µM |  |  | 
2 | MIF peptide 54–80 (from UniProt P14174 54-80) | 0.0866 µM and 0.0597 µM and 0.0653 µM |  |  | 
3 | macrophage migration-inhibitory factor (MIF), recombinant human (from UniProt P14174 1-115) (natural protein) | 0.0447 µM and 0.0404 µM and 0.0369 µM | 0.0517 µM and 0.12 µM and 0.0601 µM | 0.0241 µM and 0.0193 µM and 0.0299 µM | 
4 | macrophage migration-inhibitory factor (MIF), recombinant human, unlabelled (from UniProt P14174 1-115) (natural protein) |  |  |  | > 5 µM
